From patent publication US20090170718, “High-stringency screening of target-binding partners using a microfludic device” (published 2009) come the findings set out here.

Series [1] addresses T1, Botulinum neurotoxin type A light chain (BoNT/A-rLc) (UniProt P0DPI1 P0DPI1:2-448). The experiment in a line: SPR. Conditions: tags: List Biological Laboratories; coupled via amines to Dynabeads M-270 carboxylic acid for selection and bead assays.
The target of series [2] is T1, Botulinum neurotoxin type A light chain …. Briefly: SPR; 20 mM HEPES, 150 mM NaCl, 2 mM KCl, 2 mM MgCl2, 2 mM CaCl2, pH 7.4; […]. Conditions: tags: List Biological Laboratories; coupled via amines to Dynabeads M-270 carboxylic acid for selection and bead assays.

B1: aptamer a (ssDNA)
DNA: AGCAGCACAGAGGTCAGATGTCTTTCATACCGAGGTTGATCCAGTAGTATTCTTATCTAATTTGTTTTGTTCGTATGTGCCCTATGCGTGCTACCGTGAA
In series [1], B1 displayed a Kd of 65 nM.

B2: aptamer b (ssDNA)
DNA: AGCAGCACAGAGGTCAGATGTGGTCTTGTCTTTCATTCCAGGTGGCGAGTCAAATCGATACTGATCCGCTGACACAGGATCCTATGCGTGCTACCGTGAA
In the case of B2, the affinity in series [1], expressed as Kd, was 86 nM. This Kd and that of the molecule before are within 1.5-fold of each other.

B3: aptamer d (ssDNA)
DNA: AGCAGCACAGAGGTCAGATGTCAGATGGCCGGACTCAGGCACTAGACCACTATGCTTCCGTTGCCATTCATCGGCACGTCCTATGCGTGCTACCGTGAA
As for B3, in series [1], binding was characterised by a dissociation constant (Kd) of 53 nM.

B4: aptamer c (ssDNA)
DNA: AGCAGCACAGAGGTCAGATGCTTGAGTGTCATGGACGTTCCGGTCTTGGGCGGGATATTTGTTTGTTTTCTGCCTATGTTCCTATGCGTGCTACCGTGAA
For B4, the affinity in series [2], expressed as Kd, was 34 nM.

By Kd is commonly meant the free concentration of one partner at which half of the binding sites on the other are occupied at equilibrium, for simple one-to-one binding.
